The values below are quoted from earlier work in publication PMC4379523.

By Kd is commonly meant the concentration at which binding is half-saturated.

The data set has as its target ribosomal protein L3 N-terminal peptide (L3Δ21) 1-21 (Saccharomyces cerevisiae) (UniProt P14126). As to the kind of experiment: SPR. (In SPR one partner is held on a chip, and binding of the other changes the refractive index at the surface.)
Sequence of UniProt P14126 (P14126 1-21, stated change not applied): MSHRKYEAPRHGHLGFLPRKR

Regarding “Pokeweed antiviral protein (PAP) (from UniProt P10297)”, the Kd was 24.8 nM.
